The labels stand for the following.
B1: LINE1-full (parent)
chain: UACGUAGGUGGUUUUCCCCUGAUAGUGCUAAGGGGGCCUGGAAGUUUGGACUGGGCAGAGCUCAACACAGCGUGGCAAAGUGGCUGUGGCUAGACUGCCUCUCUGGAUUCCUCGUCACUCAGCAGGGCAUCUCUGAGAGAAAUGCC

The variants in the series derive from B1. As to the kind of experiment: self-cleavage, relative activity (ratio to wild type); higher = more cleavage; in vitro, sequencing; the parent is a self-cleaving ribozyme.
In the case of U15C A77C, the self-cleavage worked out at 0.77.

In the case of U15C A77G, the self-cleavage is 1.55.

With C16A A117G, the self-cleavage stood at 1.01.

For C18A U109A, the self-cleavage was 1.71.

Take C16A A79G: the self-cleavage came to 0.62.

Consider U15A C90A, for which the self-cleavage was 0.02.

On to U15C U143G, for which the self-cleavage turned out to be 2.03.

With U15C U143A, the self-cleavage is 1.55.

Turning to U15C U87A, the self-cleavage came to 0.1.

As to U15G A78G, the self-cleavage stood at 0.

As to U15C G82A, the self-cleavage was 1.92.

With U15C G82U, the self-cleavage is 1.9.

As for U15A A31U, the self-cleavage was determined as 1.05.

Regarding U15A A31G, the self-cleavage is 0.55.

As for C17A U134C, the self-cleavage came to 1.11.

As to C16U U143A, the self-cleavage was found to be 0.86.

As to U15C G49A, the self-cleavage is 1.21.

On to C16A A141G, for which the self-cleavage amounted to 1.35.

Turning to C19A U109A, the self-cleavage stood at 1.58.

On to U14G U102G, for which the self-cleavage came out at 0.66.

As for C16U A140G, the self-cleavage stood at 0.99.

In the case of C16A A129U, the self-cleavage amounted to 1.15.

With U15C U108A, the self-cleavage turned out to be 2.1.

For U15C U108C, the self-cleavage came to 1.99.

As for U15A A50G, the self-cleavage is 0.67.

In the case of U15A A50U, the self-cleavage was 1.43.

On to C17G U52C, for which the self-cleavage came out at 1.22.

On to U15C G93U, for which the self-cleavage was determined as 0.09.

On to C18A U46C, for which the self-cleavage is 1.65.

With U15C C95U, the self-cleavage was 0.28.

With U15C G125A, the self-cleavage was found to be 0.87.

For the variant U15C G125U, the self-cleavage is 0.82.

On to U15G A43G, for which the self-cleavage amounted to 0.5.

Turning to U15A A121G, the self-cleavage amounted to 1.15.

As for C18U U62C, the self-cleavage turned out to be 0.08.

With C17A G70U, the self-cleavage turned out to be 0.13.

C17U U52G: the self-cleavage stood at 1.41.

C19A U62A: the self-cleavage is 0.05.

U15C G74A: the self-cleavage is 1.4.

In the case of U15C C56A, the self-cleavage worked out at 0.04.

Regarding U15C C56U, the self-cleavage stood at 0.23.

For U15A U20G, the self-cleavage is 0.68.

As to U15C U91C, the self-cleavage turned out to be 0.77.

In the case of U15C U91A, the self-cleavage stood at 0.81.

C19A U85A: the self-cleavage worked out at 0.14.

Regarding C17U U81A, the self-cleavage is 1.53.

Regarding U14G U96C, the self-cleavage is 0.

With C16U U104A, the self-cleavage was 1.12.

Take C17A G35A: the self-cleavage is 0.81.

As to U15A G33A, the self-cleavage amounted to 0.98.

With U15C U39A, the self-cleavage was found to be 1.56.

As to U15C U39G, the self-cleavage was found to be 1.6.

U15C G34C: the self-cleavage came to 1.59.

For C17G U115C, the self-cleavage was 0.84.

On to U15G G44U, for which the self-cleavage stood at 0.96.

As for U15A A107G, the self-cleavage was 0.81.

As for U15A U29C, the self-cleavage came out at 2.9.

For the variant U15C G70A, the self-cleavage was 0.33.

Turning to U15C U62C, the self-cleavage was 0.09.

As to U15C U62A, the self-cleavage is 0.07.

Turning to U15C C99U, the self-cleavage was found to be 0.55.

C19A U52C: the self-cleavage was found to be 0.51.

C16U A79G: the self-cleavage is 0.9.

For the variant C16U A79U, the self-cleavage was determined as 1.54.

As to C19A U100C, the self-cleavage stood at 0.9.

Consider C19A U100A, for which the self-cleavage turned out to be 0.51.

For the variant C18U A22U, the self-cleavage worked out at 0.9.

Regarding U15C C28U, the self-cleavage is 2.35.

As for U15C A107G, the self-cleavage was 1.14.

On to C17G A59U, for which the self-cleavage came to 0.55.

For C19A A57G, the self-cleavage came out at 1.11.

For C17U A94G, the self-cleavage was determined as 0.31.

In the case of C17U A94U, the self-cleavage came out at 0.17.

In the case of U15C U134A, the self-cleavage is 1.04.

As to U15C A67G, the self-cleavage was determined as 0.44.

On to U15G U115C, for which the self-cleavage stood at 0.84.

C17U A59U: the self-cleavage worked out at 0.51.

With U15C C146U, the self-cleavage came out at 1.57.

In the case of C18U A69G, the self-cleavage was 0.29.

Turning to C16U U62C, the self-cleavage is 0.09.

With C17U A124G, the self-cleavage is 0.47.

For C16A A107G, the self-cleavage turned out to be 0.87.

On to U15A C101G, for which the self-cleavage was 0.84.

For U15C A50C, the self-cleavage was 2.42.

With U15C A50G, the self-cleavage was 1.11.

As for U14G U115C, the self-cleavage amounted to 0.79.

On to U15C U52C, for which the self-cleavage turned out to be 1.14.

As to U15C U52A, the self-cleavage was 1.35.

For C18U A117G, the self-cleavage worked out at 1.72.

As to U15C A78G, the self-cleavage is 1.34.

With U15C A78U, the self-cleavage amounted to 2.44.

Take U15A G21A: the self-cleavage turned out to be 1.15.

Consider C19A A107G, for which the self-cleavage was 1.

With C18U U85C, the self-cleavage was found to be 0.12.

With C19A U39A, the self-cleavage is 2.04.

For C16U A141G, the self-cleavage was found to be 1.13.

In the case of C18U U52A, the self-cleavage was 1.54.

With U15A A129G, the self-cleavage amounted to 0.65.

U15C U29A: the self-cleavage came out at 1.27.

As for U15C U29C, the self-cleavage was 1.28.

U15A G58A: the self-cleavage is 0.09.

Take C17U A30G: the self-cleavage came out at 1.44.

For U15C G127A, the self-cleavage is 1.05.

For the variant U15C G127U, the self-cleavage amounted to 1.23.

For U15A A94U, the self-cleavage was found to be 0.25.

Take U15A A94G: the self-cleavage is 0.19.

U15A U104C: the self-cleavage worked out at 1.06.

In the case of U15C U115G, the self-cleavage worked out at 1.07.

As to U15C U115A, the self-cleavage came out at 1.59.

U15A U102A: the self-cleavage came out at 1.05.

For the variant U15A U102C, the self-cleavage is 1.15.

Consider C18A U62C, for which the self-cleavage was determined as 0.11.

Turning to U15A A43G, the self-cleavage is 0.97.

Regarding U15A A43U, the self-cleavage worked out at 0.87.

Consider U15A U85C, for which the self-cleavage came out at 0.03.

For the variant C18A G89A, the self-cleavage worked out at 0.05.

Turning to U15A U73A, the self-cleavage was 1.02.

For U15C C120U, the self-cleavage came out at 1.72.

As for U15A G80A, the self-cleavage came out at 1.16.

For the variant C18U U104C, the self-cleavage was 0.23.

Turning to C16U A59U, the self-cleavage was determined as 0.8.

Consider U15C C90U, for which the self-cleavage stood at 0.04.

U15C U85C: the self-cleavage came out at 0.34.

Take C18U U109A: the self-cleavage turned out to be 0.9.

Regarding U15G A50G, the self-cleavage stood at 0.18.

Take C16A A124G: the self-cleavage turned out to be 0.4.

U15C A142C: the self-cleavage was found to be 1.8.

Take U15C A142G: the self-cleavage was found to be 1.41.

As to U15A U134C, the self-cleavage worked out at 1.19.

Take C17U U132C: the self-cleavage stood at 0.95.

As for U15A G114U, the self-cleavage was 0.97.

On to U15C G83A, for which the self-cleavage came out at 0.72.

With U15A G40A, the self-cleavage came out at 1.24.

Consider U15C U26A, for which the self-cleavage amounted to 1.16.

As for U15A A24G, the self-cleavage is 0.49.

With U15A A24U, the self-cleavage was 1.12.

For U15A U130C, the self-cleavage turned out to be 0.67.

For the variant U15C G144A, the self-cleavage came out at 1.04.

As to C18A G36A, the self-cleavage is 1.12.

With U15C U81G, the self-cleavage turned out to be 1.89.

Regarding U15C A57C, the self-cleavage turned out to be 0.09.

Consider U15C A57U, for which the self-cleavage is 0.11.

Turning to U15C A57G, the self-cleavage came out at 1.06.

On to C19A A136U, for which the self-cleavage came to 0.59.

On to U15G A79G, for which the self-cleavage stood at 0.

As to U15A U100C, the self-cleavage was found to be 0.91.

For C19A A142U, the self-cleavage stood at 1.36.

Regarding C18U U39C, the self-cleavage worked out at 0.82.

Turning to U15A U45G, the self-cleavage was determined as 0.73.

Turning to C17U A140G, the self-cleavage is 1.02.

With C18A U119C, the self-cleavage is 1.49.

Turning to U15A U52C, the self-cleavage stood at 0.9.

In the case of U15A U52G, the self-cleavage was 1.23.

In the case of C17A A142C, the self-cleavage was determined as 1.9.

Consider U15C U119C, for which the self-cleavage came to 1.75.

U15C U45G: the self-cleavage worked out at 1.2.

On to U15C U45C, for which the self-cleavage came out at 1.55.

In the case of U15C U45A, the self-cleavage turned out to be 1.49.

Turning to C17A U45C, the self-cleavage turned out to be 1.35.

Regarding U15A G35U, the self-cleavage worked out at 1.16.

Regarding U15C U46C, the self-cleavage worked out at 1.31.

As to U15C A94U, the self-cleavage amounted to 0.67.

On to C19A U112C, for which the self-cleavage turned out to be 1.55.

Take C19A U112G: the self-cleavage turned out to be 0.85.

As for C17U U112C, the self-cleavage is 1.49.

In the case of C17U U112A, the self-cleavage turned out to be 0.9.

As to U15A U46G, the self-cleavage is 0.85.
